Values of other authors, collected in article PMC3634864.

Target: Hemoglobin (Homo sapiens) (UniProt P69905)
Chain of UniProt P69905 (P69905 2-142, chain 1 of 2): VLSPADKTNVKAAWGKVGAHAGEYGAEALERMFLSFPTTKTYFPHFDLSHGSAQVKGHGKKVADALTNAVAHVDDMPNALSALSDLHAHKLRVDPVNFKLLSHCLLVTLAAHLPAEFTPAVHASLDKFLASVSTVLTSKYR
Chain of UniProt P69905 (P68871 2-147, chain 2 of 2, further chain): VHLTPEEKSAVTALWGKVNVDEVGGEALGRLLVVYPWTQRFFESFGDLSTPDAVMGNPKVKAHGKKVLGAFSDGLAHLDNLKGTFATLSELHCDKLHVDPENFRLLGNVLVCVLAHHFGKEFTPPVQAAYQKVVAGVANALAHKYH

- Kd: < 1 pM
Substance: Haptoglobin (from UniProt P00738)
